From patent US7485618B2, “FGF-5 supported and binding peptides” (Genencor International, Inc., priority 2003, dated 2009) come the findings set out here.

The assay concerns the target T1, FGF-5 (Homo sapiens, UniProt P12034).
T1 construct: host or cells: FGF-5 added exogenously to NR6R-3T3 murine fibroblasts
T1 sequence (P12034 21-268): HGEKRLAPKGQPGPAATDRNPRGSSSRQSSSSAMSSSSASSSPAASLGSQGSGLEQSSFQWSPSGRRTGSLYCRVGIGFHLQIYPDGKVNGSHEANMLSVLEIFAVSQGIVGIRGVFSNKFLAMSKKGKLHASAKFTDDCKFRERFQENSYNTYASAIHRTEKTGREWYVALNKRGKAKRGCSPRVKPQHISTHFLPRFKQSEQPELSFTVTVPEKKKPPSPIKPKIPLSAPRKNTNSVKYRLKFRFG
As to the kind of experiment: BLA binding assay on FGF-5 coated plates, nitrocefin readout. Particulars: purified peptide-BLA fusions at 0.1 nM, bound to FGF-5. As for the experimental part: This Example describes secondary screening methods used to analyze FGF-5 binding npeptides. Individual clones were picked and grown up in 5 ml LB+5 ppm CMP overnight at 37° C. The cell pastes were then treated with 125μ of B-PER reagent (Pierce) for 30 min with slow mixing. COSTAR plates (96-well) were coated with 0.1 μg (100 μl of 1 μg/ml) FGF-5, carrier-free (R&D Systems #237-F5/CF, Lot #GQ18304A) with gentle rocking at 4° C. overnight, followed by blocking with Superblock blocking buffer (Pierce) for several hours at room temperature. Then, 100 μl B-Per treated supernatant from individual clones from pGV02-L were added to the FGF-5 coated plates. After one hour, plates were washed six times with PBS, 0.05% TWEEN®-20 and 200 μl of nitrocefin assay buffer containing 0.1 mg/ml nitrocefin (Oxoid) was added to measure residual bound beta-lactamase activity, using Abs490/min. Control wells contained pCB04 (See, FIG. 1C) beta-lactamase as a control. […]
Cell pastes were harvested from the 200 ml cell cultures described in Example 6, by centrifugation at 3,000×g for 10 min. […] BLA activity of all liquid fractions was assayed using nitrocefin, and the concentration of fusion proteins in each fraction was calculated assuming the same specific activity as the WT enzyme. […]

B1: WT (wild-type): Wild-type BLA (E. cloaceae beta-lactamase) without peptide, control for binding of the fusions (protein)
chain: TPVSEKQLAEVVANTITPLMKAQSVPGMAVAVIYQGKPHYYTFGKADIAANKPVTPQTLFELGSISKTFTGVLGGDAIARGEISLDDAVTRYWPQLTGKQWQGIRMLDLATYTAGGLPLQVPDEVTDNASLLRFYQNWQPQWKPGTTRLYANASIGLFGALAVKPSGMPYEQAMTTRVLKPLKLDHTWINVPKAEEAHYAWGYRDGKAVRVSPGMLDAQAYGVKTNVQDMANWVMANMAPENVADASLKQGIALAQSRYWRIGSMYQGLGWEMLNWPVEANTVVEGSDSKVALAPLPVAEVNPPAPPVKASWVHKTGSTGGFGSYVAFIPEKQIGIVMLANTSYPNPARVEAAYHILEALQ
As for B1, the “Percent Bound at 0.1 nM” value was 0.4%.
